The values below come from patent US20190071490A1 (BETH ISRAEL DEACONESS MEDICAL CENTER, published 2019).

Ends that are not written are not given here.

Common to all, as to test: Biacore, 37°C, G1 Fab titrated over N-biotinylated peptide on chip
Experiment [1] deals with T1, human α-CGRP fragment 19-37 (human, not fully specified).
T1 peptide: SGGVVKNNFVPTNVGSKAF-NH2
As for the experimental part: (§1) All Biacore assays were conducted in HBS-EP running buffer (10 mM HEPES pH 7.4, 150 mM NaCl, 3 mM EDTA, 0.005% v/v polysorbate P20). CGRP surfaces were prepared by diluting the N-biotinylated CGRP to a concentration of less than 0.001 mg/mL into HBS-EP buffer and injecting it across the SA sensor chip using variable contact times. […] Samples were typically injected for 1 minute at 100 μL/min and dissociation times of at least 10 minutes were allowed. […] An entire titration series (typically generated in duplicate) was fit globally to a 1:1 Langmuir binding model using the BIAevaluation program. This returned a unique pair of association and dissociation kinetic rate constants (respectively, kₒₙ and koff) for each binding interaction, whose ratio gave the equilibrium dissociation constant (KD=koff/kₒₙ).

In experiment [2] the target is T2, human α-CGRP N31A (25-37) (human, not fully specified).
T2 construct: the entry already carries N31A
T2 peptide: NNFVPTAVGSKAF-NH2
As for the experimental part: as §1

The target of experiment [3] is T3, human α-CGRP K35Q (19-37) (human, not fully specified).
T3 construct: the entry already carries K35Q
T3 peptide: SGGVVKNNFVPTNVGSQAF-NH2
The method, then:
as §1

The target in experiment [4] is T4, human α-CGRP fragment 25-37 (human, not fully specified).
T4 peptide: NNFVPTNVGSKAF-NH2
The method, then:
as §1

Experiment [5] deals with T5, human α-CGRP T30A (25-37) (human, not fully specified).
T5 construct: the entry already carries T30A
T5 peptide: NNFVPANVGSKAF-NH2
As for the experimental part: as §1

Experiment [6] concerns the target T6, human α-CGRP P29A (25-37) (human, not fully specified).
T6 construct: the entry already carries P29A
T6 peptide: NNFVATNVGSKAF-NH2
The method, then: as §1

Experiment [7] concerns the target T7, human α-CGRP V28A (25-37) (human, not fully specified).
T7 construct: the entry already carries V28A
T7 peptide: NNFAPTNVGSKAF-NH2
As for the experimental part:
as §1

For another experiment, the target named is T8, human α-CGRP 25-38A (human, not fully specified).
T8 construct: residues 25-37 with an extra alanine added at the C-terminus (in the entry); also called 38A (25-38A)
T8 peptide: NNFVPTNVGSKAFA-NH2
As for the experimental part:
as §1

In experiment [8] the target is T9, human α-CGRP V32A (25-37) (human, not fully specified).
T9 construct: the entry already carries V32A
T9 peptide: NNFVPTNAGSKAF-NH2
The method, then:
as §1

Experiment [9] addresses T10, human α-CGRP S34A (25-37) (human, not fully specified).
T10 construct: the entry already carries S34A
T10 peptide: NNFVPTNVGAKAF-NH2
As for the experimental part: as §1

Experiment [10] has as its target T11, human α-CGRP F37A (25-37) (human, not fully specified).
T11 construct: the entry already carries F37A
T11 peptide: NNFVPTNVGSKAA-NH2
The method, then:
as §1

Experiment [11] addresses T12, human α-CGRP K35A (19-37) (human, also: N-terminal biotin when on the chip).
T12 construct: the entry already carries K35A
T12 peptide: SGGVVKNNFVPTNVGSAAF-NH2
As for the experimental part: as §1

Experiment [12] deals with T13, human α-CGRP F27A (25-37) (human, not fully specified).
T13 construct: the entry already carries F27A
T13 peptide: NNAVPTNVGSKAF-NH2
As for the experimental part:
as §1

The target in experiment [13] is T14, human α-CGRP K35E (19-37) (human, also: N-terminal biotin when on the chip).
T14 construct: the entry already carries K35E
T14 peptide: SGGVVKNNFVPTNVGSEAF-NH2
The method, then: as §1

Experiment [14] deals with T15, human α-CGRP K35M (19-37) (human, also: N-terminal biotin when on the chip).
T15 construct: the entry already carries K35M
T15 peptide: SGGVVKNNFVPTNVGSMAF-NH2
As for the experimental part:
as §1

In experiment [15] the target is T16, human α-CGRP G33A (25-37) (human, not fully specified).
T16 construct: the entry already carries G33A
T16 peptide: NNFVPTNVASKAF-NH2
The method, then:
as §1

The next experiment deals with T17, human α-CGRP 1-37 (WT) (human, C-terminal amide; N-terminal biotin when captured on the SA chip; 125I-labelled in the radioligand assay).
T17 construct: also called α-human
T17 peptide: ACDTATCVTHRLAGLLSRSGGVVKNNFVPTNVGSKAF
As for the experimental part:
as §1

B1: antibody G1 Fab fragment (Fab, V domains shown)
VH: EVQLVESGGGLVQPGGSLRLSCAASGFTFSNYWISWVRQAPGKGLEWVAEIRSESDASATHYAEAVKGRFTISRDNAKNSLYLQMNSLRAEDTAVYYCLAYFDYGLAIQNYWGQGTLVTVSS
VL: EIVLTQSPATLSLSPGERATLSCKASKRVTTYVSWYQQKPGQAPRLLIYGASNRYLGIPARFSGSGSGTDFTLTISSLEPEDFAVYYCSQSYNYPYTFGQGTKLEIK
With B1, the Kd – broadly, the constant that tells how readily two partners part at equilibrium – is 0.16 nM in experiment [1]; 0.53 nM in experiment [2]; 1.38 nM in [3]; 0.28 nM in experiment [4]; 0.47 nM in experiment [5]; 0.79 nM in experiment [6]. Also, the dissociation constant Kd in experiment [7] is 0.28 nM; in [8], 1.71 nM; in [9], 3.04 nM; in experiment [10], 95 nM; in [11], 1.33 nM; in experiment [12] it was 0.38 nM. Moreover, the Kd in [13] amounted to 9.73 nM; in [14], 0.51 nM; in [15] it was 141 nM; with human α-CGRP 1-37 (WT) it was 0.16 nM. The binding result in the experiment with human α-CGRP 25-38A is on record as “no binding”.
